The values that follow are results of earlier work, collected in article PMC9523730.

This series has as its target 14-3-3ζ (Homo sapiens) (UniProt P63104). Put plainly: various biophysical approaches.

Regarding 14-3-3ζ (from UniProt P63104), the Kd was 5 nM.

By Kd is commonly meant a measure of binding affinity in units of concentration.
